Test results published in the supplement of paper PMC12042874.
± gives the uncertainty stated by the source.

Assay: amyloid nucleation score (Sup35N fusion, yeast selection) (log enrichment); library NNK3; higher = more nucleation; inactive = no reads after selection
Summary of the method: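 Libraries of peptides of 20 random codons fused to Sup35N were expressed in psi-negative yeast and induced 24 hours with 100 μM copper sulfate. Selection was 7 days at 30°C on medium lacking adenine and uracil, and plasmid inserts were Illumina-sequenced before and after selection. Nucleation score is the DiMSum log enrichment of output over input reads, centred on the mode score of non-aggregating sequences, and sequences with under 100 input reads were left out.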

Substance	amyloid nucleation score
YILSTLAFFGDRNYDMVLGC	inactive
CDVHTGRCDSCYTGNSTKFG	inactive
PVVTVGYLDRMFISFLFSRI	inactive
FVYWNLSAYVRILVVDGNGR	inactive
NGGIERLSWVRVWFRHTFQS	inactive
RTSEPKTAHIMNEAIRRC	inactive
GTLISEVCIFQ	inactive
GSKLICIVWLFLLFG	inactive
GYNVVKLCFIIILFVVEESS	inactive
CLCFCCCSRVHYGTLFRNSA	2.98 ± 0.052
TSTSAYILGPVTQ	inactive
SLLSIFVKGARLQISDVSQG	0.773 ± 0.18
YKLRVNSVETNCTEILTLVE	inactive
GSYRLLY	inactive
YFGCSYTNQAFGRSDSSYVD	inactive
NCVRFFYASDLSNYTRA	inactive
EYIAI	inactive
WYGVSACYGWHNVAHSSRTR	inactive
MLDCF	inactive
FDVFISENNDAGSHNVEMYQ	inactive
PKNFLSVETF	inactive
EFFSCYTEYPFRPAFLILTT	inactive
MFIFGGISFVMVSYLNRAHT	1.13 ± 0.1

Substance	amyloid nucleation score
MHFVELLRLALVL	inactive
VFSNGSRDAWSFFNQKSNRF	0.193 ± 0.21
LRFRAQNTYEGPYTVGPVWS	inactive
SNLRMRKNGVVDDIWPDERL	-0.802 ± 1.3
WVSRNTVRGKVMSRCWVVQY	inactive
FLLSCK	inactive
QSYIRKQFRIQSHISFSDNS	inactive
KYSMTK	inactive
TLHCSVYMCTTYGNTHLYVH	2.2 ± 0.063
LVICKNINKLISWLSDYSFA	inactive
LVTFCYLDGSILNGEALRG	inactive
KNSTWMSESVNNRFFIQVGA	inactive
TFCMLCYQNSIFTVYNSEYQ	3.36 ± 0.064
MLNGVLNSKVPMNRRTSGNL	0.537 ± 0.13
LMGLCTLI	inactive
FGICVDVGRAHIVKRSNRML	inactive
TYLVNSDMMGDRIFGACRDV	inactive
VMQQYLYNLCCL	2.83 ± 0.052
VYFDDRTYRYRVAHIKFSFR	2.94 ± 0.076
TLCSSGGMFHRSMDSITMS	inactive
VNIRLMVKIRFDSVLRILPY	0.509 ± 0.31
YVSQQYCWPGFFHRVHTGKS	inactive
SMFNGNLSRSMWFWRVRVTP	inactive

Substance	amyloid nucleation score
LTINDLCGFVKWLRTNCNVS	inactive
YKYGPARCRKRGDSCAKGGG	inactive
TFWVFIAQKRCSGGKYGCMC	-0.097 ± 0.69
ILGIIMI	inactive
VQPVGSSKGVRGVE	0.983 ± 0.2
CNMSPKNFSIFSFVPNKPVG	inactive
PRNHIRSLSM	inactive
TYYGCYLVGR	0.01 ± 0.66
GVFERR	inactive
LGESMRRVKVSVQIRIHMGQ	1.11 ± 0.16
EKWQKDLSNKHVRNAVVAWS	inactive
NLNGLMRLQIAVLFQ	0.577 ± 0.21
SFRMSTSCWSSGALMYRLYR	inactive
KYLAFLQLCGAPMYLWTPPI	0.757 ± 0.3
YYLFWVAFDMMLRLRFFVMD	inactive
PNRLTPFQRSTSSHLQNVGQ	inactive
SGKGKCVYNVLRQGFFSKMS	inactive
GYKATQLLSGGPYNLCVGGT	inactive
WCDDFWLYVVLGYGLCFVLC	inactive
DEISSFER	inactive
NVDDLGFLFIVDAYINCHFR	1.58 ± 0.12
LSNDYCLRWVFMFKVMIRCD	inactive
RRNWSCMQTLSLANVVRVSA	inactive

Substance	amyloid nucleation score
SSTNSYTSSLVSVSLVGDGA	inactive
SSRRYS	inactive
LLDENGGHYSSIRAISDGGI	inactive
MLGVSYCRQVVYKENSYDFR	inactive
PKSYVNTVKVMVVNSQVQLQ	0.836 ± 0.2
HLWCKPRLWKSLFVPYD	inactive
KIYWGATLNQTSYRVAVCLT	inactive
CWFNPDPGLKWF	inactive
YLNNWMSWRRSLRRHIEVVR	inactive
PLSVAFYGVTIR	0.056 ± 0.19
KRSPKIQDL	inactive
CMMSWIDSNFRGSEMLTH	inactive
SVSSYAICVEACNYFRSRLV	inactive
CGWMTHSEL	inactive
GRFKSGSLPFRRSGE	inactive
ILSSGLGKHTGLIIAYESAR	inactive
MRCGKSL	inactive
MHLDYGC	inactive
TSNFCPFTVQN	-0.477 ± 0.8
HRKSGMVIYFTVPWFMKRNC	inactive
ETVGAPRSLYYST	inactive
DLRGETNSYSGVCQERK	0.104 ± 0.69
PSTGLNSVKNRIDVSCGFR	inactive

Substance	amyloid nucleation score
VRGYLYRCKAGSLACHPDPG	inactive
ISPCVPKSAWSIFRIAI	inactive
MYVLLHTSQVL	inactive
YMPFYDSCVRHAYRSSFR	0.038 ± 0.43
VHSPWVNNLYQCWTYYFLLL	0.162 ± 0.88
ILMPKTVVTVYISNMCDYSQ	2.58 ± 0.071
HYSAFTRQSVSSKDTDT	-0.582 ± 0.76
DLTMVQLMIFMLIIIFFNLL	inactive
VSLGVNRGG	inactive
WKNNRLNIIYQPLLGTQICK	inactive
GNVSCHFILGQRVHFPSCDF	0.809 ± 0.29
SVVEPRRTGTWNSTGVRSQH	inactive
IALIICEGLPRMRGSSGPVG	inactive
RVRRLT	inactive
LNCLRMSLLC	inactive
GPIINVIS	inactive
FLAWYMTFMV	0.036 ± 0.88
QDWEMVN	inactive
RRSYTFRSVGKEWNIAYWYI	inactive
RMDADI	inactive
NMPYSCKRLWRDKCQMWEYR	inactive
TYTYIGIKAFCDLYRSKMGV	inactive
TCCSVLLIKVSSNEGD	2.6 ± 0.078

Substance	amyloid nucleation score
SSQFTHEETGFCDVVPVVCG	inactive
IHYRANRCRRYCAFIYKAN	inactive
SNAKWGNISVGSRDYRTIRS	1.48 ± 0.083
YEMENDVS	inactive
LTRFRDIRFLINKNGACKEW	-0.213 ± 0.71
KGSVMTCDSYTCFMLNSEVL	1.47 ± 0.13
PSRRRMYADFHKATFPVRMG	inactive
FFSIT	inactive
FSPTIGTTWDTLMF	inactive
LIYCYMFMITAVGRACMPCR	inactive
VIDFYVEPCLIYGAPPCWLH	0.606 ± 0.38
FQFCS	inactive
MNWLSTTGECSILDISQ	inactive
LLPAI	inactive
VRLRVEYAKSEWKMIFGEFY	inactive
LLRSCYVSYALNGYSTTFRD	inactive
DGRCKMLPVESGGAC	inactive
IHDMVQYERCDNRNSNRVHE	inactive
SKCVGISLRALVYYGHSQVT	inactive
NRDVLQKPLIIAICQSFCSQ	2.32 ± 0.083
NYMYGLRGSRLQFGMFRFGG	inactive
NETPVSDAESGVLDFTSHEL	inactive
IMLLVGAWTVSYNSCGSDAR	inactive

Substance	amyloid nucleation score
YLMVSVNFFSYVLSESRMCG	0.85 ± 0.12
TYHSCY	inactive
FLFTFKIHPLGGMFGVLILS	inactive
FSLDVDDGVFS	inactive
TLPMYTRCTTFAHLSSS	inactive
MRLCAGSCAVFMWNVLVMLG	inactive
RWLTVKPSRIRLWGCSWGLR	inactive
SRFYTL	inactive
SDGFLSADYRFFMMLRYRLE	inactive
FSAPL	inactive
WFYGRLLPVPVLWIIRLKKG	0.01 ± 0.59
CWTAPLSKFLRVWVTIPYNL	inactive
TLSKILLLSRYLYTRLKVRL	inactive
RNTGKAVHFCNRVYDSSMSM	-0.1 ± 0.6
ASLTGNFYTGWRFLALATMC	inactive
VAYNRGSQCCR	inactive
NKNQIDQASSWFPR	inactive
TIMAFIIAIRSLDRCQSSGM	inactive
DDASFIMERI	inactive
GCKLIEWDVLIVDPMPARGR	inactive
VTMFLGQWCSHSIVAMCIEG	inactive
